This note sets out measurements from the supplement of paper PMC9112550, “Optimization of the antimicrobial peptide Bac7 by deep mutational scanning” (BMC Biology, 2022).
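Note: peptides expressed intracellularly from a pBAD plasmid library in pooled LB shake-flask culture, induced with 0.3% L-arabinose, DNA abundance read by NGS, three biological replicates, DESeq2 with apeglm shrinkage.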

This data set concerns Escherichia coli TOP10. The data set is described as follows: shrunken log2 fold change of peptide-encoding DNA abundance (4.5 h post-induction vs induction); higher = less antimicrobial activity (less host growth inhibition). The note with it: time post-induction: 4.5 h; library: site-saturation at positions 5, 18, 19, 20.
As to RRIRSRPPRLPRPRPRPRSGPRP, the “shrunken log2 fold change” value worked out at 0.237.

Take RRIRNRPPRLPRPRPRPSVYPRP: the “shrunken log2 fold change” value is -0.172.

For RRIRRRPPRLPRPRPRPQGKPRP, the “shrunken log2 fold change” value amounted to 0.0379.

Take RRIRRRPPRLPRPRPRPWQIPRP: the “shrunken log2 fold change” value is 0.0297.

Consider RRIRYRPPRLPRPRPRPRICPRP, for which the “shrunken log2 fold change” value turned out to be 0.00835.

Regarding RRIRSRPPRLPRPRPRPIFIPRP, the “shrunken log2 fold change” value was -0.329.

RRIRCRPPRLPRPRPRPFNHPRP: the “shrunken log2 fold change” value is -0.427.

With RRIRNRPPRLPRPRPRPQINPRP, the “shrunken log2 fold change” value is -0.181.

Turning to RRIRFRPPRLPRPRPRPIFDPRP, the “shrunken log2 fold change” value was -0.268.

Turning to RRIRTRPPRLPRPRPRPICNPRP, the “shrunken log2 fold change” value is -0.00195.

In the case of RRIRGRPPRLPRPRPRPFWQPRP, the “shrunken log2 fold change” value was found to be 0.467.

On to RRIRPRPPRLPRPRPRPGRTPRP, for which the “shrunken log2 fold change” value stood at 0.153.

On to RRIRLRPPRLPRPRPRPEESPRP, for which the “shrunken log2 fold change” value was determined as 0.012.

In the case of RRIRQRPPRLPRPRPRPSSNPRP, the “shrunken log2 fold change” value was -0.222.

As to RRIRLRPPRLPRPRPRPRCNPRP, the “shrunken log2 fold change” value was -0.534.

Regarding RRIRHRPPRLPRPRPRPLCLPRP, the “shrunken log2 fold change” value is -0.368.

Regarding RRIRCRPPRLPRPRPRPVLDPRP, the “shrunken log2 fold change” value came to 0.0892.

As for RRIRKRPPRLPRPRPRPDGVPRP, the “shrunken log2 fold change” value was 0.154.

As for RRIRPRPPRLPRPRPRPQRKPRP, the “shrunken log2 fold change” value came out at 0.113.

For RRIRGRPPRLPRPRPRPMDVPRP, the “shrunken log2 fold change” value worked out at 0.265.

For RRIRNRPPRLPRPRPRPLWWPRP, the “shrunken log2 fold change” value amounted to 0.605.

For RRIRRRPPRLPRPRPRPTHEPRP, the “shrunken log2 fold change” value is 0.338.

Take RRIRLRPPRLPRPRPRPWMCPRP: the “shrunken log2 fold change” value is -0.492.

With RRIRWRPPRLPRPRPRPFKYPRP, the “shrunken log2 fold change” value was -0.00867.

In the case of RRIRRRPPRLPRPRPRPMGIPRP, the “shrunken log2 fold change” value came out at 0.0313.

For RRIRTRPPRLPRPRPRPDTSPRP, the “shrunken log2 fold change” value is -0.324.

Consider RRIRWRPPRLPRPRPRPFSCPRP, for which the “shrunken log2 fold change” value is -0.00231.

RRIRERPPRLPRPRPRPDLDPRP: the “shrunken log2 fold change” value was -0.0232.

As for RRIRNRPPRLPRPRPRPMLHPRP, the “shrunken log2 fold change” value was -0.263.

RRIRRRPPRLPRPRPRPKPLPRP: the “shrunken log2 fold change” value is 0.474.

On to RRIRARPPRLPRPRPRPCGPPRP, for which the “shrunken log2 fold change” value was found to be 0.0702.

In the case of RRIRYRPPRLPRPRPRPYWPPRP, the “shrunken log2 fold change” value is -0.0534.

Turning to RRIRPRPPRLPRPRPRPCYSPRP, the “shrunken log2 fold change” value was -0.507.

RRIRARPPRLPRPRPRPAYEPRP: the “shrunken log2 fold change” value stood at 0.0749.

As for RRIRFRPPRLPRPRPRPTWEPRP, the “shrunken log2 fold change” value was -0.0897.

With RRIRYRPPRLPRPRPRPPMEPRP, the “shrunken log2 fold change” value was 0.0358.

RRIRRRPPRLPRPRPRPGDYPRP: the “shrunken log2 fold change” value is -0.045.

Consider RRIRLRPPRLPRPRPRPFVAPRP, for which the “shrunken log2 fold change” value was -0.0302.

For RRIRSRPPRLPRPRPRPSCVPRP, the “shrunken log2 fold change” value was -0.152.

For the sequence RRIRFRPPRLPRPRPRPTIEPRP, the “shrunken log2 fold change” value was -0.037.

Consider RRIRVRPPRLPRPRPRPGDNPRP, for which the “shrunken log2 fold change” value came out at 0.174.

As for RRIRPRPPRLPRPRPRPWPIPRP, the “shrunken log2 fold change” value came out at 0.054.

RRIRLRPPRLPRPRPRPTQSPRP: the “shrunken log2 fold change” value stood at 0.144.

For RRIRARPPRLPRPRPRPYQMPRP, the “shrunken log2 fold change” value was -0.396.

For the sequence RRIRPRPPRLPRPRPRPNTIPRP, the “shrunken log2 fold change” value is -0.553.

For the sequence RRIRGRPPRLPRPRPRPMQGPRP, the “shrunken log2 fold change” value was 0.0711.

Regarding RRIRPRPPRLPRPRPRPWFSPRP, the “shrunken log2 fold change” value is -0.255.

Turning to RRIRCRPPRLPRPRPRPQPEPRP, the “shrunken log2 fold change” value is 0.13.

Regarding RRIRMRPPRLPRPRPRPNMVPRP, the “shrunken log2 fold change” value is -0.147.

For RRIRWRPPRLPRPRPRPIYCPRP, the “shrunken log2 fold change” value was -0.581.

Regarding RRIRERPPRLPRPRPRPIVFPRP, the “shrunken log2 fold change” value came out at 0.0592.

Take RRIRGRPPRLPRPRPRPLPQPRP: the “shrunken log2 fold change” value is 0.927.

Take RRIRYRPPRLPRPRPRPKISPRP: the “shrunken log2 fold change” value was -0.134.

For RRIRNRPPRLPRPRPRPHIWPRP, the “shrunken log2 fold change” value is -0.0306.

Turning to RRIRLRPPRLPRPRPRPGKMPRP, the “shrunken log2 fold change” value is -0.0508.

Consider RRIRSRPPRLPRPRPRPNYFPRP, for which the “shrunken log2 fold change” value was -0.828.

For the sequence RRIRTRPPRLPRPRPRPREVPRP, the “shrunken log2 fold change” value was found to be 0.442.

For the sequence RRIRCRPPRLPRPRPRPRMLPRP, the “shrunken log2 fold change” value worked out at 0.0183.

For the sequence RRIRWRPPRLPRPRPRPVNYPRP, the “shrunken log2 fold change” value is -0.122.

Regarding RRIRQRPPRLPRPRPRPHFDPRP, the “shrunken log2 fold change” value was -0.000826.

Take RRIRCRPPRLPRPRPRPTIWPRP: the “shrunken log2 fold change” value turned out to be 0.105.

Regarding RRIRCRPPRLPRPRPRPPHSPRP, the “shrunken log2 fold change” value was found to be 0.395.

With RRIRDRPPRLPRPRPRPMYFPRP, the “shrunken log2 fold change” value is -0.358.

As for RRIRMRPPRLPRPRPRPLLNPRP, the “shrunken log2 fold change” value was 0.366.

With RRIRYRPPRLPRPRPRPLHRPRP, the “shrunken log2 fold change” value was -0.116.

As to RRIRFRPPRLPRPRPRPSIIPRP, the “shrunken log2 fold change” value was -0.279.

For the sequence RRIRLRPPRLPRPRPRPPSDPRP, the “shrunken log2 fold change” value was determined as 0.432.

In the case of RRIRTRPPRLPRPRPRPPTQPRP, the “shrunken log2 fold change” value turned out to be 0.282.

For the sequence RRIRARPPRLPRPRPRPGQAPRP, the “shrunken log2 fold change” value was -0.0216.

In the case of RRIRRRPPRLPRPRPRPLGDPRP, the “shrunken log2 fold change” value is 0.682.

Turning to RRIRYRPPRLPRPRPRPEHSPRP, the “shrunken log2 fold change” value is -0.425.

For RRIRPRPPRLPRPRPRPPHRPRP, the “shrunken log2 fold change” value was 0.401.

As to RRIRKRPPRLPRPRPRPWHFPRP, the “shrunken log2 fold change” value came out at 0.169.

In the case of RRIRARPPRLPRPRPRPEIYPRP, the “shrunken log2 fold change” value is -0.0195.

As to RRIRPRPPRLPRPRPRPKAVPRP, the “shrunken log2 fold change” value was determined as 0.0993.

Regarding RRIRNRPPRLPRPRPRPVGPPRP, the “shrunken log2 fold change” value worked out at 0.448.

In the case of RRIRYRPPRLPRPRPRPPFDPRP, the “shrunken log2 fold change” value was -0.565.

In the case of RRIRVRPPRLPRPRPRPSPKPRP, the “shrunken log2 fold change” value was determined as 0.24.

Consider RRIRWRPPRLPRPRPRPKYMPRP, for which the “shrunken log2 fold change” value was -0.501.

In the case of RRIRFRPPRLPRPRPRPIKTPRP, the “shrunken log2 fold change” value was -0.0134.

As to RRIRFRPPRLPRPRPRPQDRPRP, the “shrunken log2 fold change” value was -0.591.

Consider RRIRVRPPRLPRPRPRPVCMPRP, for which the “shrunken log2 fold change” value stood at 0.0454.

With RRIRCRPPRLPRPRPRPIYKPRP, the “shrunken log2 fold change” value is -0.559.

Consider RRIRARPPRLPRPRPRPVFAPRP, for which the “shrunken log2 fold change” value amounted to 0.561.

Regarding RRIRTRPPRLPRPRPRPQSRPRP, the “shrunken log2 fold change” value was -0.0689.

In the case of RRIRNRPPRLPRPRPRPWHTPRP, the “shrunken log2 fold change” value was -0.0681.

Consider RRIRKRPPRLPRPRPRPVNEPRP, for which the “shrunken log2 fold change” value is -0.00608.

Take RRIRGRPPRLPRPRPRPALNPRP: the “shrunken log2 fold change” value was 0.705.

In the case of RRIRVRPPRLPRPRPRPGLKPRP, the “shrunken log2 fold change” value came to 0.049.

For RRIRHRPPRLPRPRPRPSQMPRP, the “shrunken log2 fold change” value was 0.0205.

Regarding RRIRQRPPRLPRPRPRPHRTPRP, the “shrunken log2 fold change” value is -0.0723.

Turning to RRIRSRPPRLPRPRPRPQDSPRP, the “shrunken log2 fold change” value is -0.164.

On to RRIRFRPPRLPRPRPRPNKRPRP, for which the “shrunken log2 fold change” value was -0.274.

As for RRIRLRPPRLPRPRPRPGIMPRP, the “shrunken log2 fold change” value was -0.219.

Consider RRIRKRPPRLPRPRPRPHKIPRP, for which the “shrunken log2 fold change” value is 0.134.

Turning to RRIRVRPPRLPRPRPRPADGPRP, the “shrunken log2 fold change” value is 0.000767.

Consider RRIRNRPPRLPRPRPRPYCIPRP, for which the “shrunken log2 fold change” value is -0.177.

For the sequence RRIRARPPRLPRPRPRPDVRPRP, the “shrunken log2 fold change” value was 0.0106.

Regarding RRIRTRPPRLPRPRPRPTDQPRP, the “shrunken log2 fold change” value is -0.143.

For RRIRARPPRLPRPRPRPYDHPRP, the “shrunken log2 fold change” value is -0.57.

For the sequence RRIRCRPPRLPRPRPRPAQCPRP, the “shrunken log2 fold change” value is -0.113.

In the case of RRIRHRPPRLPRPRPRPMHPPRP, the “shrunken log2 fold change” value was -0.193.

On to RRIRFRPPRLPRPRPRPWNLPRP, for which the “shrunken log2 fold change” value amounted to 0.0325.

On to RRIRIRPPRLPRPRPRPNNRPRP, for which the “shrunken log2 fold change” value is -0.557.

On to RRIRHRPPRLPRPRPRPAEPPRP, for which the “shrunken log2 fold change” value was 0.19.

In the case of RRIRKRPPRLPRPRPRPDDMPRP, the “shrunken log2 fold change” value came out at 2.74.

As to RRIRYRPPRLPRPRPRPTHFPRP, the “shrunken log2 fold change” value was determined as 0.262.

Consider RRIRRRPPRLPRPRPRPHSNPRP, for which the “shrunken log2 fold change” value was -0.281.

Turning to RRIRGRPPRLPRPRPRPYYNPRP, the “shrunken log2 fold change” value is -0.48.

Consider RRIRYRPPRLPRPRPRPKLAPRP, for which the “shrunken log2 fold change” value was -0.0901.

Consider RRIRERPPRLPRPRPRPLWSPRP, for which the “shrunken log2 fold change” value is -0.125.

Take RRIRDRPPRLPRPRPRPVFQPRP: the “shrunken log2 fold change” value is -0.134.

As to RRIRCRPPRLPRPRPRPWVLPRP, the “shrunken log2 fold change” value was -0.265.

On to RRIRRRPPRLPRPRPRPGRNPRP, for which the “shrunken log2 fold change” value was -0.000492.

In the case of RRIRRRPPRLPRPRPRPCGNPRP, the “shrunken log2 fold change” value was 0.0466.

Regarding RRIRSRPPRLPRPRPRPSHNPRP, the “shrunken log2 fold change” value was -0.784.

With RRIRFRPPRLPRPRPRPWHMPRP, the “shrunken log2 fold change” value was -0.121.

Turning to RRIRVRPPRLPRPRPRPHCQPRP, the “shrunken log2 fold change” value is -0.401.

For the sequence RRIRHRPPRLPRPRPRPKFRPRP, the “shrunken log2 fold change” value is -0.317.

With RRIRIRPPRLPRPRPRPSLHPRP, the “shrunken log2 fold change” value was -0.824.

RRIRVRPPRLPRPRPRPKSTPRP: the “shrunken log2 fold change” value was -0.158.

Regarding RRIRYRPPRLPRPRPRPGRYPRP, the “shrunken log2 fold change” value was -0.912.

With RRIRDRPPRLPRPRPRPASFPRP, the “shrunken log2 fold change” value worked out at 0.136.

Take RRIRMRPPRLPRPRPRPNACPRP: the “shrunken log2 fold change” value was 0.0451.

Consider RRIRHRPPRLPRPRPRPIKNPRP, for which the “shrunken log2 fold change” value was -0.563.
